Assay results reported in US20060246421.

B1: NS3 helicase (NS3h), wild type, hepatitis C virus (protein)
chain: AVDFVPVESMETTMRSPVFTDNSSPPAVPQTFQVAHLHAPTGSGKSTKVPAAYAAQGYKVLVLNPSVAATLGFGAYMSKAHGIDPNIRTGVRTITTGAPITYSTYGKFLADGGCSGGAYDIIICDECHSTDSTTILGIGTVLDQAETAGARLVVLATATPPGSVTVPHPNIEEVALSSTGEIPFYGKAIPIETIKGGRHLIFCHSKKKCDELAAKLSGLGLNAVAYYRGLDVSVIPTSGDVIVVATDALMTGFTGDFDSVIDCNTCVTQTVDFSLDPTFTIETTTVPQDAVSRSQRRGRTGRGRMGIYRFVTPGERPSGMFDSSVLCECYDAGCAWYELTPAETSVRLRAYLNTPGLPVCQDHLEFWESVFTGLTHIDAHFLSQTKQAGDNFPYLVAYQATVCARAQAPPPSWDQMWKCLIRLKPTLHGPTPLLYRLGAVQNEVTTTHPITKYIMACMSADLEVVT
amplitude of single turnover DNA unwinding (processivity): 0.35 ± 0.01 nM

B2: NS3h KDA (D543K/H545D/Q549A mutant NS3 helicase) (protein)
chain: AVDFVPVESMETTMRSPVFTDNSSPPAVPQTFQVAHLHAPTGSGKSTKVPAAYAAQGYKVLVLNPSVAATLGFGAYMSKAHGIDPNIRTGVRTITTGAPITYSTYGKFLADGGCSGGAYDIIICDECHSTDSTTILGIGTVLDQAETAGARLVVLATATPPGSVTVPHPNIEEVALSSTGEIPFYGKAIPIETIKGGRHLIFCHSKKKCDELAAKLSGLGLNAVAYYRGLDVSVIPTSGDVIVVATDALMTGFTGDFDSVIDCNTCVTQTVDFSLDPTFTIETTTVPQDAVSRSQRRGRTGRGRMGIYRFVTPGERPSGMFDSSVLCECYDAGCAWYELTPAETSVRLRAYLNTPGLPVCQDHLEFWESVFTGLTHIKADFLSATKQAGDNFPYLVAYQATVCARAQAPPPSWDQMWKCLIRLKPTLHGPTPLLYRLGAVQNEVTTTHPITKYIMACMSADLEVVT
amplitude of single turnover DNA unwinding (processivity): 0.21 ± 0.01 nM
